In patent US20190055314A1 (ADAGENE, published 2019):
Changes are numbered by the printed parent chain. Values belong to the binder of their own block, whether it stands above or below them.

Target: T1, CD137-hisFc fusion protein (Sino Biological Cat 10041-H03H) (human, UniProt Q07011 24-186)
T1 construct: Bought; also called recombinant human CD137 (fused with human Fc and His tag); not shown: His tag and human Fc
Assay: BLI Octet, Fab

B1: Fab 5349 (Fab, V domains shown)
VH: EVQLVESGGGLVQPGGSLRLSCAASGYSITSGHYWAWIRQAPGKGLEWVSAISGSGSSTYYADSVKGRFTISRDNSKNTLYLQLNSLRAEDTAVYYCARGGSDTVLGDWFAYWGQGTLVTVSS
VL: DIQLTQSPSSLSASVGDRVTITCRASQGISSSLAWYQQKPGKAPKLLIYDASNLETGVPSRFSGSGSGTDFTLTISSLQPEDFATYYCQQGYSTWTFGQGTKVEIKR
notes: Fab from E. coli; also called VH24/VL24
- Kd: 6.2 nM
- koff: 0.00101 s⁻¹
- kon: 162000 M⁻¹ s⁻¹

B2: Fab 4076 (Fab, V domains shown)
VH: EVQLVESGGGLVQPGGSLRLSCAASGYSITSGYHWGWIRQAPGKGLEWVSAISGAGGSTYYADSVKGRFTISRDNSKNTLYLQLNSLRAEDTAVYYCARDGYGGSYFDYWGQGTLVTVSS
VL: B1 VL with R24Q, G28D, S31T, S32F, N53S, T56S, G91A, T94I
notes: Fab from E. coli; also called VH4/VL4
- Kd: 7.44 nM
- koff: 0.000475 s⁻¹
- kon: 63800 M⁻¹ s⁻¹

B3: Fab 5363 (Fab, V domains shown)
VH: B1 VH with T30S, A36T, T104A
VL: B1 VL with I29V, S30G, S32Y, S93Q, T94L
notes: Fab from E. coli; also called VH29/VL29
- Kd: 9.87 nM
- koff: 0.000826 s⁻¹
- kon: 83700 M⁻¹ s⁻¹

B8: Fab 7080 (Fab, V domains shown)
VH: EVQLVESGGGLVQPGGSLRLSCAASGFSLSTGGVGVGWIRQAPGKGLEWVSYISGAGGTTYYADSVKGRFTISRDNSKNTLYLQLNSLRAEDTAVYYCAREGSDTVLGDWFAYWGQGTLVTVSS
VL: DIQLTQSPSSLSASVGDRVTITCRASQGISSYLAWYQQKPGKAPKLLIYDASNLETGVPSRFSGSGSGTDFTLTISSLQPEDFATYYCQQYYTTPLTFGQGTKVEIKR
notes: Fab from E. coli; also called VH43/VL43
- Kd: 24.4 nM
- koff: 0.00746 s⁻¹
- kon: 306000 M⁻¹ s⁻¹

B13: Fab 7087 (Fab, V domains shown)
VH: B8 VH with A56D, G58D, D104T, T105A
VL: B8 VL
notes: Fab from E. coli; also called VH45/VL45
- Kd: 69.6 nM
- koff: 0.00855 s⁻¹
- kon: 123000 M⁻¹ s⁻¹

B15: Fab 7131 (Fab, V domains shown)
VH: B8 VH with G58D, T59S
VL: B8 VL with I29V
notes: Fab from E. coli; also called VH55/VL55
- Kd: 30.4 nM
- koff: 0.0081 s⁻¹
- kon: 266000 M⁻¹ s⁻¹

B19: Fab 7077 (Fab, V domains shown)
VH: B8 VH with G37A, A56S, G58D, L107V
VL: B8 VL
notes: Fab from E. coli; also called VH40/VL40
- Kd: 18.8 nM
- koff: 0.00934 s⁻¹
- kon: 498000 M⁻¹ s⁻¹

B20: Fab 7105 (Fab, V domains shown)
VH: B8 VH with G58S
VL: B8 VL with T93S
notes: Fab from E. coli; also called VH51/VL51
- Kd: 33.3 nM
- koff: 0.011 s⁻¹
- kon: 330000 M⁻¹ s⁻¹

B21: Fab 7088 (Fab, V domains shown)
VH: B8 VH with G32S, A56D, T59S, D104T, T105A, L107V
VL: B8 VL
notes: Fab from E. coli; also called VH46/VL46
- Kd: 43.6 nM
- koff: 0.0111 s⁻¹
- kon: 255000 M⁻¹ s⁻¹

B24: Fab 7078 (Fab, V domains shown)
VH: B8 VH with A56D, G58D, L107A
VL: B8 VL
notes: Fab from E. coli; also called VH41/VL41
- Kd: 25.2 nM
- koff: 0.0087 s⁻¹
- kon: 345000 M⁻¹ s⁻¹

Continued by falling Kd, values first:

- Kd: 55.5 nM
- koff: 0.0173 s⁻¹
- kon: 312000 M⁻¹ s⁻¹
B22: Fab 7090 (Fab, V domains shown)
VH: B8 VH with G37A, A56Y, D104T, T105A
VL: B8 VL with T93S
notes: Fab from E. coli; also called VH47/VL47

- Kd: 45.7 nM
- koff: 0.0197 s⁻¹
- kon: 431000 M⁻¹ s⁻¹
B18: Fab 7092 (Fab, V domains shown)
VH: B8 VH with G32S, V34M, A56Y, T105V, L107A
VL: B8 VL with T93S
notes: Fab from E. coli; also called VH48/VL48

- Kd: 43.1 nM
- koff: 0.0123 s⁻¹
- kon: 287000 M⁻¹ s⁻¹
B17: Fab 7081 (Fab, V domains shown)
VH: B8 VH with T105A
VL: B8 VL
notes: Fab from E. coli; also called VH44/VL44

- Kd: 40.4 nM
- koff: 0.00231 s⁻¹
- kon: 57200 M⁻¹ s⁻¹
B6: Fab 5417 (Fab, V domains shown)
VH: B8 VH with G32S, G37A, Y52S, E101G, D104T, T105A, L107T, A112D
VL: B1 VL with S31P, S32Y, L54R, E55A, V58I, T94L
notes: Fab from E. coli; also called VH39/VL39

- Kd: 40.3 nM
- koff: 0.00405 s⁻¹
- kon: 101000 M⁻¹ s⁻¹
B11: Fab 7133 (Fab, V domains shown)
VH: B8 VH with G32S, G37A, Y52S, A56Y, T80R
VL: B8 VL with I29V
notes: Fab from E. coli; also called VH56/VL56

- Kd: 39.7 nM
- koff: 0.0123 s⁻¹
- kon: 309000 M⁻¹ s⁻¹
B23: Fab 7128 (Fab, V domains shown)
VH: B8 VH with G37A, A56D
VL: B8 VL with Y91S, T93S
notes: Fab from E. coli; also called VH54/VL54

- Kd: 35 nM
- koff: 0.0162 s⁻¹
- kon: 462000 M⁻¹ s⁻¹
B16: Fab 7100 (Fab, V domains shown)
VH: B8 VH with G32S, A56D, T59S
VL: B8 VL with T93S
notes: Fab from E. coli; also called VH50/VL50

- Kd: 34.5 nM
- koff: 0.00911 s⁻¹
- kon: 264000 M⁻¹ s⁻¹
B12: Fab 7120 (Fab, V domains shown)
VH: B8 VH with G32S, A56D, G58D, D104T
VL: B8 VL with T93S
notes: Fab from E. coli; also called VH53/VL53

- Kd: 32 nM
- koff: 0.00555 s⁻¹
- kon: 173000 M⁻¹ s⁻¹
B14: Fab 7109 (Fab, V domains shown)
VH: B8 VH with G32S, G37S, A56S, G58D, T105A
VL: B8 VL with T93S
notes: Fab from E. coli; also called VH52/VL52

- Kd: 31.7 nM
- koff: 0.00322 s⁻¹
- kon: 102000 M⁻¹ s⁻¹
B10: Fab 7135 (Fab, V domains shown)
VH: B8 VH with Y52S, A56S, T59S
VL: B8 VL with I29V
notes: Fab from E. coli; also called VH57/VL57

- Kd: 29.9 nM
- koff: 0.003 s⁻¹
- kon: 100000 M⁻¹ s⁻¹
B9: Fab 7079 (Fab, V domains shown)
VH: B8 VH with G32S, G37A, Y52S, A56Y
VL: B8 VL
notes: Fab from E. coli; also called VH42/VL42

- Kd: 16.1 nM
- koff: 0.00977 s⁻¹
- kon: 605000 M⁻¹ s⁻¹
B4: Fab 5346 (Fab, V domains shown)
VH: B8 VH with Y52G, A56Y, G58S, T105A, L107A, A112D
VL: B1 VL with G28D, S30R, S32Y, L54R, E55A, V58I, T94I
notes: Fab from E. coli; also called VH22/VL22

- Kd: 12.6 nM
- koff: 0.00444 s⁻¹
- kon: 352000 M⁻¹ s⁻¹
B7: Fab 3760 (Fab, V domains shown)
VH: EVQLVESGGGLVQPGGSLRLSCAASGFTFTSYGIHWVRQAPGKGLEWVSGISGAGDTTYYADSVKGRFTISRDNSKNTLYLQLNSLRAEDTAVYYCARERDYDFDYWGQGTLVTVSS
VL: B8 VL with G28S, I29V, Y91S, T93S, P95S, L96H
notes: Fab from E. coli; also called VH1/VL1

- Kd: 1.76 nM
- koff: 0.000437 s⁻¹
- kon: 248000 M⁻¹ s⁻¹
B5: Fab 5407 (Fab, V domains shown)
VH: B8 VH with G16A, G37A, Y52S, A56Y, G58S, T105A, A112G
VL: B1 VL with R24Q, G28D, S30T, S31T, S32Y, L54R, E55A, V58I, S93Y, T94L
notes: Fab from E. coli; also called VH35/VL35
